From the Immune Epitope Database (IEDB)
Blank lines part the entries; values can stand above or below the sequence they belong to.

Assays:
[1] = target: HLA-A*02:01; assay: IEDB peptide-MHC binding, purified MHC/competitive/radioactivity; ≥ and ≤ were set here for values at or beyond the usual limits of such assays; settings: source organism: Homo sapiens
[2] = target: HLA-A*01:01; assay: IEDB peptide-MHC binding, purified MHC/competitive/fluorescence; ≥ and ≤ were set here for values at or beyond the usual limits of such assays; settings: source organism: Zaire ebolavirus
[3] = target: HLA-A*68:02; assay: IEDB peptide-MHC binding, purified MHC/competitive/fluorescence; filed as Kd, often an IC50 or EC50 that approximates it; ≥ and ≤ were set here for values at or beyond the usual limits of such assays; settings: source organism: Mycobacterium tuberculosis C
[4] = target: HLA-A*26:02; assay: as above; settings: source organism: Mycobacterium tuberculosis C
[5] = target: HLA-A*02:06; assay: as above; settings: source organism: Mycobacterium tuberculosis C
[6] = target: HLA-A*26:01; assay: as above; settings: source organism: Mycobacterium tuberculosis C
[7] = target: HLA-B*27:05; assay: IEDB peptide-MHC binding, purified MHC/direct/fluorescence; filed as Kd, often an IC50 or EC50 that approximates it; ≥ and ≤ were set here for values at or beyond the usual limits of such assays
[8] = target: HLA-B*18:01; assay: as above
[9] = target: HLA-B*40:01; assay: as above
[10] = target: HLA-B*57:01; assay: as above
[11] = target: HLA-B*58:01; assay: as above
[12] = target: HLA-B*07:02; assay: as above; settings: source organism: Mycobacterium tuberculosis
[13] = target: HLA-A*11:01; assay: as above
[14] = target: HLA-A*69:01; assay: as above
[15] = target: HLA-B*48:01; assay: as above
[16] = target: HLA-A*01:01; assay: as above
[17] = target: HLA-B*46:01; assay: as above
[18] = target: HLA-A*31:01; assay: as above
[19] = target: HLA-B*15:17; assay: as above
[20] = target: HLA-B*15:01; assay: as above
[21] = target: HLA-B*44:02; assay: IEDB peptide-MHC binding, purified MHC/competitive/radioactivity; filed as Kd, often an IC50 or EC50 that approximates it; ≥ and ≤ were set here for values at or beyond the usual limits of such assays; settings: source organism: Homo sapiens
[22] = target: HLA-B*57:01; assay: as above; settings: source organism: Homo sapiens
[23] = target: HLA-B*44:03; assay: as above; settings: source organism: Homo sapiens
[24] = target: HLA-C*08:02; assay: IEDB peptide-MHC binding, purified MHC/direct/fluorescence; filed as Kd, often an IC50 or EC50 that approximates it; ≥ and ≤ were set here for values at or beyond the usual limits of such assays
[25] = target: HLA-A*03:01; assay: as above
[26] = target: HLA-C*12:03; assay: as above
[27] = target: HLA-A*11:01; assay: IEDB peptide-MHC binding, purified MHC/competitive/fluorescence; filed as Kd, often an IC50 or EC50 that approximates it; ≥ and ≤ were set here for values at or beyond the usual limits of such assays
[28] = target: HLA-B*15:01; assay: as above; settings: source organism: Vibrio parahaemolyticus K5030
[29] = target: HLA-A*02:01; assay: IEDB peptide-MHC binding, purified MHC/direct/fluorescence; filed as Kd, often an IC50 or EC50 that approximates it; ≥ and ≤ were set here for values at or beyond the usual limits of such assays
[30] = target: HLA-B*39:01; assay: as above; settings: source organism: Vibrio parahaemolyticus RIMD 2210633
[31] = target: HLA-B*08:02; assay: as above; settings: source organism: Vibrio parahaemolyticus RIMD 2210633
[32] = target: HLA-A*26:01; assay: as above; settings: source organism: Vibrio parahaemolyticus RIMD 2210633
[33] = target: HLA-B*35:01; assay: IEDB peptide-MHC binding, purified MHC/competitive/fluorescence; filed as Kd, often an IC50 or EC50 that approximates it; ≥ and ≤ were set here for values at or beyond the usual limits of such assays; settings: source organism: Bacillus anthracis str. A2012
[34] = target: HLA-B*07:02; assay: as above; settings: source organism: Bacillus anthracis str. A2012
[35] = target: HLA-B*51:01; assay: as above; settings: source organism: Bacillus anthracis str. A2012
[36] = target: HLA-C*04:01; assay: as above; settings: source organism: Vibrio vulnificus YJ016
[37] = target: HLA-B*83:01; assay: as above; settings: source organism: Vibrio vulnificus YJ016
[38] = target: HLA-C*14:02; assay: as above; settings: source organism: Vibrio vulnificus YJ016
[39] = target: HLA-B*45:06; assay: as above; settings: source organism: Vibrio vulnificus YJ016
[40] = target: HLA-B*15:42; assay: as above; settings: source organism: Vibrio vulnificus YJ016
[41] = target: HLA-B*46:01; assay: as above; settings: source organism: Vibrio vulnificus YJ016
[42] = target: HLA-B*35:01; assay: IEDB peptide-MHC binding, purified MHC/direct/fluorescence; filed as Kd, often an IC50 or EC50 that approximates it; ≥ and ≤ were set here for values at or beyond the usual limits of such assays; settings: source organism: Vibrio vulnificus YJ016
[43] = target: HLA-C*06:02; assay: as above; settings: source organism: Vibrio vulnificus YJ016
[44] = source organism: Mycobacterium tuberculosis
[45] = source organism: Vibrio parahaemolyticus
[46] = source organism: Camelpox virus M-96

IC50 [1]: 1470 nM
Sequence: SCSRAIPQV

Sequence: GPFDAVLYY
IC50 [2]: ≥ 172000 nM

Sequence: AVFPRYHPR
Kd [3]: 1910 nM | Kd [4]: ≥ 20000 nM | Kd [5]: 2100 nM | Kd [6]: 1670 nM | Kd [7, 44]: ≥ 20000 nM | Kd [8, 44]: ≥ 20000 nM | Kd [9, 44]: ≥ 20000 nM | Kd [10, 44]: ≥ 20000 nM | Kd [11, 44]: ≥ 20000 nM | Kd [12]: ≥ 20000 nM | Kd [13, 44]: 38 nM | Kd [14, 44]: ≥ 20000 nM | Kd [15, 44]: ≥ 20000 nM | Kd [16, 44]: ≥ 20000 nM | Kd [17, 44]: ≥ 20000 nM | Kd [18, 44]: 4.7 nM | Kd [19, 44]: ≥ 20000 nM | Kd [20, 44]: ≥ 20000 nM

Kd [21]: 7780 nM | Kd [22]: 208 nM | Kd [23]: 5540 nM | Kd ([24]; source organism: Homo sapiens): ≥ 20000 nM | Kd ([25]; source organism: Homo sapiens): 4540 nM | Kd ([26]; source organism: Homo sapiens): 171 nM | Kd ([11]; source organism: Homo sapiens): 63.1 nM | Kd ([13]; source organism: Homo sapiens): 2500 nM | Kd ([14]; source organism: Homo sapiens): 1310 nM | Kd ([16]; source organism: Homo sapiens): 143 nM | Kd ([20]; source organism: Homo sapiens): 410 nM
Sequence: YTAVVPLVY

Sequence: LTESDMDYH
IC50 [2]: 41600 nM

Sequence: SFGGFTFK
Kd ([27]; source organism: Influenza A virus H3N2): 44.8 nM

Sequence: NSSYWRQGY
Kd ([27]; source organism: Vibrio parahaemolyticus K5030): ≥ 20000 nM | Kd [28]: ≥ 20000 nM | Kd [25, 45]: ≥ 20000 nM | Kd [7, 45]: ≥ 20000 nM | Kd [8, 45]: ≥ 20000 nM | Kd [9, 45]: ≥ 20000 nM | Kd [29, 45]: ≥ 20000 nM | Kd [10, 45]: ≥ 20000 nM | Kd [11, 45]: ≥ 20000 nM | Kd [30]: ≥ 20000 nM | Kd [14, 45]: ≥ 20000 nM | Kd [15, 45]: ≥ 20000 nM | Kd [31]: ≥ 20000 nM | Kd [16, 45]: 93 nM | Kd [17, 45]: ≥ 20000 nM | Kd [18, 45]: ≥ 20000 nM | Kd [32]: 160 nM | Kd [19, 45]: 222 nM

IC50 [1]: 284 nM
Sequence: RQASLSISV

Sequence: YPIVIAPAM
Kd [33]: ≤ 0.1 nM | Kd [34]: 13.8 nM | Kd [35]: 1010 nM

Sequence: YTMELCGAM
Kd [36]: ≥ 5000 nM | Kd [37]: ≥ 5000 nM | Kd [38]: ≤ 0.1 nM | Kd [39]: ≥ 5000 nM | Kd [40]: ≥ 5000 nM | Kd [41]: 18 nM | Kd [42]: 28 nM | Kd ([26]; source organism: Vibrio vulnificus YJ016): 88 nM | Kd [43]: ≥ 20000 nM

Sequence: YLSSWTPVV
Kd ([24]; source organism: Variola virus): 74 nM | Kd [29, 46]: ≤ 1 nM | Kd [14, 46]: 154 nM
